According to patent US6083712:

Molecular target: biotin synthase (Escherichia coli) (UniProt P12996)

Row | Substance | pmol of biotin produced [pmol]
1 | ferredoxin(flavodoxin)-NADP+ reductase (from UniProt P28861) (enzyme) | 800
2 | flavodoxin (from UniProt P61949) | 800
